Source: publication PMC6695731, “Application of a Substrate-Mediated Selection with c-Src Tyrosine Kinase to a DNA-Encoded Chemical Library” (Molecules, 2019)
Where two headings read alike, the source gives them in different places.

Experiments:
c-Src [1] = target: T1, c-Src (Homo sapiens, UniProt P12931); test: ADP-Glo assay of compounds as c-Src substrates (ADP production); assay type: biochemical; conditions: for Vmax / Km: Table S3, ADP-Glo assay of SrcDEL10 derivatives, enzyme Src; for activity as substrate in ADP-Glo assay (words): SrcDEL10 derivatives compared with parental compound
Experimental: (§1) Hit molecules were initially characterized as substrates for c-Src using the luciferase-based ADP-Glo assay (Promega). All six molecules appeared to be efficient substrates for Src kinase.
(§2) Kinase reaction was performed as follows 1x kinase buffer (25 mM Tris-HCl (pH 7.5), 2 mM dithiothreitol (DTT), 0.1 mM Na3VO4, 10 mM MgCl2), 1 mM ATP, different concentrations (1 μM to 100 μM) of substrates (either off DNA or on DNA hit molecules), and 12 nM rSrc by incubation for 2 h at 30 °C. After that, distinct 55mers were annealed to each kinase reaction, as previously described. The annealed reactions were incubated with anti Pho-Tyr loaded protein G magnetic bead at RT for 30 min. After washing by three times 20 μL 1xPBST with 1 mg/mL BSA, 1 mg/mL tRNAs), the captured samples were eluted by 20 μL of 1 mM phenylphosphate. The resulting supernatant was then used as a template in qPCR.
(§3) After the kinase reaction was performed as previous section, the reaction mixture (5 μL) was incubated with 5 µL of ADP-Glo™ reagent at RT for 40 min and then add 10 µL of kinase detection reagent at RT for 1 h. The luminescence was measure by plate reader.

c-Src [2] = target: T1, c-Src; test: NADH-based coupled enzyme assay detecting ADP generation; assay type: biochemical; conditions: 1 mM ATP, 100 µM compound, 12 nM Src, 30 °C, 3 h
Experimental: To confirm this, compounds were tested with an NADH-based, coupled enzyme assay that also detects ADP generation. […] This additionally supported that the ADP-Glo activity observed was due to activation of ATP hydrolysis and not phosphotransfer to these compounds.
Kinase reaction was performed as follows 1x kinase buffer (25 mM Tris-HCl (pH 7.5), 2 mM dithiothreitol (DTT), 0.1 mM Na3VO4, 10 mM MgCl2), 1 mM ATP, 100 μM peptides and 12 nM Src at 30 °C for 3 h. The kinase reaction mixture was incubated with 30 unit/mL lactic dehydrogenase (LDH), 20 unit/mL pyruvate kinase (PK), 2 mM phosphoenolpyruvate (PEP), and 1 mM NADH. The absorbance of NADH was monitored at 340 nm.
Figure S8. NADH Coupled Assay of Hit Molecules with c-Src. Samples were composed of 1 mM ATP,
100 µM putative substrate molecules, and 12 nM c-Src kinase at 30 C for 3 hours. Full method description
is provided in Methods and Materials 4.6 NADH assay.

c-Src [3] = target: T1, c-Src; test: radiolabel (32P-ATP) inhibition assay of LYNtide phosphorylation by c-Src; assay type: biochemical; conditions: 32P-ATP 50 µM, biotinylated-LYNtide 50 µM
Experimental: The original six off-DNA hits were tested for inhibition of c-Src activity. For these tests, we used ^32P-ATP as a substrate and detected phosphorylation levels of a biotinylated-LYNtide substrate after adsorption to streptavidin coated membranes. This assay should not be affected by activation of ATP hydrolysis or phosphotransfer to the small molecules. […] There was no apparent correlation of these values to the Km or kcat values in the prior assays as substrates.
Each hit molecule was preincubated with 1.2 nM c-Src at 30 °C for 30 min. The kinase reaction was initiated with the addition of 50 μM LYNtide and 50 μM ATP with 0.15 μCi gamma ^32P ATP at 30 °C for 10 min. The kinase reaction samples (2 µL) were spotted on P81 filter paper consisting of 1.5 cm squares. After air dry, the P81 papers were washed 4 times with 0.5% phosphoric acid for 5 min each. The P81 papers were washed one time with acetone for 5 min. The papers were then allowed to air dry for about 20 min. The dried P81 papers were analyzed by liquid scintillation counter.
Figure 6 Inhibition of hit molecules in a radiolabel assay with ^32P-ATP (50 µM) and biotinylated-LYNtide (50 µM) as substrates.

c-Src [4] = conditions: cited from earlier work
[5] = tested on: C[C@H](NC(=O)c1ccc(CN(CC2CC2)C(=O)CCO)cc1)C(=O)N(CCc1ccc(O)cc1)CC(N)=O; test: ADP-Glo assay of compounds as c-Src substrates (ADP production); assay type: biochemical; conditions: other: Table S3, ADP-Glo assay of SrcDEL10 derivatives, enzyme Src; pH 7.5; 30.0 °C
Experimental: as §1, §2, §3

[6] = tested on: N=C(N)NCCC[C@H](NC(=O)CN(Cc1ccco1)C(=O)CCO)C(=O)N(CCc1ccc(O)cc1)Cc1ccc(C(N)=O)cc1; test: as above; assay type: biochemical; conditions: other: ADP-Glo assay, compound as substrate of c-Src; pH 7.5; 30.0 °C
Experimental: as §1, §2, §3

[7] = tested on: NC(=O)C(Cc1ccc(O)cc1)NC(=O)CN(CCCCCCO)C(=O)C1Cc2ccccc2N1C(=O)CCc1ccc(O)cc1; test: as above; assay type: biochemical; conditions: other: ADP-Glo assay, compound as substrate of c-Src; pH 7.5; 30.0 °C
Experimental: as §1, §2, §3

[8] = tested on: NC(=O)C(Cc1cccnc1)NC(=O)CN(CCc1ccc(O)cc1)C(=O)C1Cc2c([nH]c3ccccc23)CN1C(=O)CCO; test: as above; assay type: biochemical; conditions: other: ADP-Glo assay, compound as substrate of c-Src; pH 7.5; 30.0 °C
Experimental: as §1, §2, §3

[9] = tested on: NC(=O)C1Cc2ccc(O)cc2CN1C(=O)C(CC(=O)O)NC(=O)c1ccc(CN(CC2CC2)C(=O)CCO)cc1; test: as above; assay type: biochemical; conditions: other: Table S3, ADP-Glo assay of SrcDEL10 derivatives, enzyme Src; pH 7.5; 30.0 °C
Experimental: as §1, §2, §3

[10] = tested on: NC(=O)CN(CCCCCCO)C(=O)c1ccc(CNC(=O)[C@H](Cc2ccc(O)cc2)NC(=O)CCc2ccc(O)cc2)cc1; test: as above; assay type: biochemical; conditions: other: ADP-Glo assay, compound as substrate of c-Src; pH 7.5; 30.0 °C
Experimental: as §1, §2, §3

[11] = tested on: NC(=O)CN(CCc1ccc(O)cc1)C(=O)[C@H](CC(=O)O)NC(=O)c1ccc(CN(CC2CC2)C(=O)CCO)cc1; test: as above; assay type: biochemical; conditions: other: ADP-Glo assay, compound as substrate of c-Src; pH 7.5; 30.0 °C
Experimental: as §1, §2, §3

[12] = tested on: NC(=O)CN(CCc1ccc(O)cc1)C(=O)[C@H](CC(=O)O)NC(=O)c1cccc(CN(CC2CC2)C(=O)CCO)c1; test: as above; assay type: biochemical; conditions: other: Table S3, ADP-Glo assay of SrcDEL10 derivatives, enzyme Src; pH 7.5; 30.0 °C
Experimental: as §1, §2, §3

[13] = tested on: NC(=O)CN(CCc1ccc(O)cc1)C(=O)[C@H](CCC(=O)O)NC(=O)c1ccc(CN(CC2CC2)C(=O)CCO)cc1; test: as above; assay type: biochemical; conditions: other: Table S3, ADP-Glo assay of SrcDEL10 derivatives, enzyme Src; pH 7.5; 30.0 °C
Experimental: as §1, §2, §3

[14] = tested on: NC(=O)CN(CCc1ccccc1)C(=O)[C@H](CC(=O)O)NC(=O)c1ccc(CN(CC2CC2)C(=O)CCO)cc1; test: as above; assay type: biochemical; conditions: pH 7.5, 30.0 °C
Experimental: as §1, §2, §3

[15] = tested on: NC(=O)[C@H](Cc1ccc(O)cc1)NC(=O)[C@H](CC(=O)O)NC(=O)c1ccc(CN(CC2CC2)C(=O)CCO)cc1; test: as above; assay type: biochemical; conditions: other: Table S3, ADP-Glo assay of SrcDEL10 derivatives, enzyme Src; pH 7.5; 30.0 °C
Experimental: as §1, §2, §3

[16] = tested on: NC(=O)[C@H](Cc1cccnc1)NC(=O)CN(CC1CC1)C(=O)CCc1ccc(O)cc1; test: as above; assay type: biochemical; conditions: other: ADP-Glo assay, compound as substrate of c-Src; pH 7.5; 30.0 °C
Experimental: as §1, §2, §3

[17] = tested on: O=C(O)C[C@H](NC(=O)c1ccc(CN(CC2CC2)C(=O)CCO)cc1)C(=O)NCCc1ccc(O)cc1; test: as above; assay type: biochemical; conditions: other: Table S3, ADP-Glo assay of SrcDEL10 derivatives, enzyme Src; pH 7.5; 30.0 °C
Experimental: as §1, §2, §3

[18] = optimal natural peptide sequence for c-Src, reference not given
[19] = c-Src substrates lacking acidic residues, Lam and coworkers
[20] = other: Table S3, ADP-Glo assay of SrcDEL10 derivatives, enzyme Src

Compound: C[C@H](NC(=O)c1ccc(CN(CC2CC2)C(=O)CCO)cc1)C(=O)N(CCc1ccc(O)cc1)CC(N)=O [Src 10-2]
- Vmax (c-Src [1]): 0.492 µM/min

Compound: O=C(O)C[C@H](NC(=O)c1ccc(CN(CC2CC2)C(=O)CCO)cc1)C(=O)NCCc1ccc(O)cc1 [Src 10-3]
- Vmax (c-Src [1]): 0.382 µM/min

Compound: NC(=O)CN(CCc1ccc(O)cc1)C(=O)[C@H](CC(=O)O)NC(=O)c1cccc(CN(CC2CC2)C(=O)CCO)c1 [Src 10-4]
- Vmax (c-Src [1]): 0.54 µM/min

Compound: NC(=O)CN(CCc1ccccc1)C(=O)[C@H](CC(=O)O)NC(=O)c1ccc(CN(CC2CC2)C(=O)CCO)cc1 [Src 10-6]
- activity as substrate in ADP-Glo assay (words) (c-Src [1]): comparable substrate to the parental compound

Compound: CCCN(Cc1ccc(C(=O)N[C@@H](CC(=O)O)C(=O)N(CCc2ccc(O)cc2)CC(N)=O)cc1)C(=O)CCO [Src 10-8]
- activity as substrate in ADP-Glo assay (words) (c-Src [1]; listed as 10–8): lacked activity altogether
- activity as substrate in ADP-Glo assay (words) (c-Src [1]; listed as Src-10-8): No activity
- Km (c-Src [1]): > 100 µM

Compound: CC(=O)N(Cc1ccc(C(=O)N[C@@H](CC(=O)O)C(=O)N(CCc2ccc(O)cc2)CC(N)=O)cc1)CC1CC1 [Src 10-9]
- Km (c-Src [1]): > 100 µM

Compound: NC(=O)CN(Cc1cccc(O)c1)C(=O)[C@H](CC(=O)O)NC(=O)c1ccc(CN(CC2CC2)C(=O)CCO)cc1 [Src 10-10]
- Km (c-Src [1]): > 100 µM

Compound: NC(=O)C(Cc1cccnc1)NC(=O)CN(CCc1ccc(O)cc1)C(=O)C1Cc2c([nH]c3ccccc23)CN1C(=O)CCO (centres unmarked) [SrcDEL5]
- ADP generation relative to compound (c-Src [2]): large molar excess
- IC50 (c-Src [3]): 64 µM

Compound: N=C(N)NCCC[C@H](NC(=O)CN(Cc1ccco1)C(=O)CCO)C(=O)N(CCc1ccc(O)cc1)Cc1ccc(C(N)=O)cc1 [SrcDEL8]
- ADP generation relative to compound (c-Src [2]): large molar excess
- IC50 (c-Src [3]): 96 µM

Compound: NC(=O)CN(CCCCCCO)C(=O)c1ccc(CNC(=O)[C@H](Cc2ccc(O)cc2)NC(=O)CCc2ccc(O)cc2)cc1 [SrcDEL14]
- ADP generation relative to compound (c-Src [2]): little turnover
- IC50 (c-Src [3]): 18 µM

Compound: NC(=O)C(Cc1ccc(O)cc1)NC(=O)CN(CCCCCCO)C(=O)C1Cc2ccccc2N1C(=O)CCc1ccc(O)cc1 (centres unmarked) [SrcDEL16]
- ADP generation relative to compound (c-Src [2]): little turnover
- IC50 (c-Src [3]): 26 µM

Compound: NC(=O)[C@H](Cc1cccnc1)NC(=O)CN(CC1CC1)C(=O)CCc1ccc(O)cc1 [SrcDEL21]
- ADP generation relative to compound (c-Src [2]): large molar excess

Compound: EEEIYGIFG
- Km (c-Src [4]; [18]): 14 µM
- kcat (c-Src [4]; [18]): 2.9 s⁻¹

Compound: GIYWHHY [efficient c-Src peptide substrate lacking acidic residues]
- Km (c-Src [4]; [19]): 21 µM

Compound: YIYGSFK [efficient c-Src peptide substrate lacking acidic residues]
- Km (c-Src [4]; [19]): 55 µM

Compound: c-Src (Homo sapiens)
- Km [5]: 4.31 µM
- kcat [5]: 41 min⁻¹
- kcat/Km [5]: 9. 52 1/min/uM
- Km [6]: 19 µM
- kcat [6]: 2.5 s⁻¹
- kcat/Km [6]: 130000 M⁻¹ s⁻¹
- Km [7]: 18 µM
- kcat [7]: 0.533 s⁻¹
- kcat/Km [7]: 30000 M⁻¹ s⁻¹
- Km [8]: 33 µM
- kcat [8]: 5.83 s⁻¹
- kcat/Km [8]: 183000 M⁻¹ s⁻¹
- Km [9]: 15.4 µM
- kcat [9]: 122. 8 1/min
- kcat/Km [9]: 7. 95 1/min/uM
- Km [10]: 13 µM
- kcat [10]: 0.75 s⁻¹
- kcat/Km [10]: 55000 M⁻¹ s⁻¹
- Km [11]: 18 µM
- kcat [11]: 1.37 s⁻¹
- kcat/Km [11]: 76700 M⁻¹ s⁻¹
- Km [12]: 9.68 µM
- kcat [12]: 44. 66 1/min
- kcat/Km [12]: 4. 61 1/min/uM
- Km [13]: 20.7 µM
- kcat [13]: 92. 84 1/min
- kcat/Km [13]: 4. 49 1/min/uM
- kcat/Km ([14]; other: ADP-Glo assay): 6.9 min⁻¹ µM⁻¹
- Km [14, 20]: 21.1 µM
- kcat [14, 20]: 144. 9 1/min
- kcat/Km [14, 20]: 6. 86 1/min/uM
- Km [15]: 4.37 µM
- kcat [15]: 89. 33 1/min
- kcat/Km [15]: 20. 56 1/min/uM
- Km [16]: 28 µM
- kcat [16]: 1.43 s⁻¹
- kcat/Km [16]: 50000 M⁻¹ s⁻¹
- Km [17]: 3.79 µM
- kcat [17]: 24. 21 1/min
- kcat/Km [17]: 6. 39 1/min/uM
